Consider eight molecules from US20020102256A1 (ZymoGenetics, published 2002).

Common to all, as to test: cell-based or functional assay
Assay [1] has as its target T1, Activated human C1s (Calbiochem-Novabiochem Corporation) (human, UniProt P09871 16-688).
T1 sequence (looked up): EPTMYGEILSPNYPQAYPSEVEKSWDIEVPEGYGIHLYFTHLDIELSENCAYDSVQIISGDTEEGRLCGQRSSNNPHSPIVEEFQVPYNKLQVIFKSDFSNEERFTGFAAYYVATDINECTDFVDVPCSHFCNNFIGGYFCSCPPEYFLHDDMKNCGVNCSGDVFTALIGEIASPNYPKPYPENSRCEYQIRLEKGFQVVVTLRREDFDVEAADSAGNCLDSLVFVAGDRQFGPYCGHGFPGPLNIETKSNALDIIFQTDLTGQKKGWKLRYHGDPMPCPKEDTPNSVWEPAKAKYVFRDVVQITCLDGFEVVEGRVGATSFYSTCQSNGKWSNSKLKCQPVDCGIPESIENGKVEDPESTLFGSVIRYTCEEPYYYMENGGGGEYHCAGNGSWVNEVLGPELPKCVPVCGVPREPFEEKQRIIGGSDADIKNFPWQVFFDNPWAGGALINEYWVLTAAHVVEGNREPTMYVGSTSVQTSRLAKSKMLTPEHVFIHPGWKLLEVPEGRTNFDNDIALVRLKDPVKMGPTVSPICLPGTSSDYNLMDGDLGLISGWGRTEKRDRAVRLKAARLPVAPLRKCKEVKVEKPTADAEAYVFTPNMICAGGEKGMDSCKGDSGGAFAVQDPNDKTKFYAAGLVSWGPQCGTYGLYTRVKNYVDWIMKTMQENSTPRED

Assay [2] addresses T1, Activated human C1s …. The source holds these as a separate data set.
In assay [3] the target is T2, Activated human C1s (Calbiochem-Novabiochem Corporation) (human) (UniProt P09871).
T2 sequence (looked up): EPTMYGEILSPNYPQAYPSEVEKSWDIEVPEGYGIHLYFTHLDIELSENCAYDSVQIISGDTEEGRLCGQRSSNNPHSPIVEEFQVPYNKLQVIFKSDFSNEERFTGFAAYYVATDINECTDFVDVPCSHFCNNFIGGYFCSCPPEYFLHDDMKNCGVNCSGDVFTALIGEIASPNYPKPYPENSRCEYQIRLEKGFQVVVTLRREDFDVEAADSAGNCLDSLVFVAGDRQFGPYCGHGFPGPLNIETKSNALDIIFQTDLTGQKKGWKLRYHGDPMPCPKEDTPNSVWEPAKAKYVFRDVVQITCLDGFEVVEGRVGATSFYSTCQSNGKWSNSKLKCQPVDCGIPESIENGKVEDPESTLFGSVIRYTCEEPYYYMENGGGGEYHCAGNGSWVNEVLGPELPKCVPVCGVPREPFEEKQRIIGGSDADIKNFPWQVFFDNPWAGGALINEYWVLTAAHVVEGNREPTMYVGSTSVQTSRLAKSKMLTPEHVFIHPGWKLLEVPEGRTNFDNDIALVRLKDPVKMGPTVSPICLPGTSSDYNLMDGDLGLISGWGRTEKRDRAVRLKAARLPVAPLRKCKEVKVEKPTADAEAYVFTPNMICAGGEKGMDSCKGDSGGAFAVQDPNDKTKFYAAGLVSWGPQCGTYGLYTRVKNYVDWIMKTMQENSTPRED

Several values for one entry are separate records, joined by “and”; a condition that tells them apart may be missing. Equal entries are not always repeated.

B1: Deglycosylated and cleaved recombinant BD001 (other)
chain 1: AKKKLPKCQKQEDCGSWDLKCNNVTKKCECRNQVCGRGCPKERYQRDKYGCRKCLCKGCDGFKCR
chain 2: LGCTYGFKTDKKGCEAFCTCNTKETACVNIWCTDPYKCNPESGRCEDPNEEYEYDYE
modifications: sulfation of at least one of Tyr117, Tyr119 and Tyr121; glycan at Asn23 removed with PNGase F
Turning to B1, in assay [1], the “IC50 (nM), C1s enzyme assay” value came out at 21.9 nM.

B2: Desulfated and cleaved recombinant BD001 (other)
chain 1: AKKKLPKCQKQEDCGSWDLKCNNVTKKCECRNQVCGRGCPKERYQRDKYGCRKCLCKGCDGFKCR
chain 2: LGCTYGFKTDKKGCEAFCTCNTKETACVNIWCTDPYKCNPESGRCEDPNEEYEYDYE
modifications: sulfate groups removed from Tyr117/Tyr119/Tyr121 with aryl sulfatase; glycosylation at Asn23 (fucosylated complex-type core)
Consider B2, for which, in assay [1], the “IC50 (nM), C1s enzyme assay” value was found to be 558 nM.

B3: Cleaved recombinant BD001 (other)
chain 1: AKKKLPKCQKQEDCGSWDLKCNNVTKKCECRNQVCGRGCPKERYQRDKYGCRKCLCKGCDGFKCR
chain 2: LGCTYGFKTDKKGCEAFCTCNTKETACVNIWCTDPYKCNPESGRCEDPNEEYEYDYE
modifications: sulfation of at least one of Tyr117, Tyr119 and Tyr121; glycosylation at Asn23 (fucosylated complex-type core)
As for B3, the “fold higher IC50 than the matched, intact form, C1s enzyme assay” value in assay [2] is roughly 10 fold. Moreover, in assay [1], the “IC50 (nM), C1s enzyme assay” value came out at 19.8 nM.

B4: Recombinant BD001 expressed in Baculovirus (protein)
chain: AKKKLPKCQKQEDCGSWDLKCNNVTKKCECRNQVCGRGCPKERYQRDKYGCRKCLCKGCDGFKCRLGCTYGFKTDKKGCEAFCTCNTKETACVNIWCTDPYKCNPESGRCEDPNEEYEYDYE
modifications: glycosylation at Asn23 (fucosylated complex-type core); sulfation of at least one of Tyr117, Tyr119 and Tyr121 (tyrosine sulfation at the C-terminus on three tyrosine residues)
For B4, in assay [3], the IC50 (nM), C1s enzyme assay worked out at 2.5 nM and the IC50, C1s enzyme assay (decrease in Vmax of Pefa-C1E cleavage) worked out at 5.2 nM.

B5: Desulfated recombinant BD001 (protein)
chain: AKKKLPKCQKQEDCGSWDLKCNNVTKKCECRNQVCGRGCPKERYQRDKYGCRKCLCKGCDGFKCRLGCTYGFKTDKKGCEAFCTCNTKETACVNIWCTDPYKCNPESGRCEDPNEEYEYDYE
modifications: sulfate groups removed from Tyr117/Tyr119/Tyr121 with aryl sulfatase; glycosylation at Asn23
Turning to B5, the IC50 (nM), C1s enzyme assay in assay [3] was 36 nM.

B6: Deglycosylated recombinant BD001 (protein)
chain: AKKKLPKCQKQEDCGSWDLKCNNVTKKCECRNQVCGRGCPKERYQRDKYGCRKCLCKGCDGFKCRLGCTYGFKTDKKGCEAFCTCNTKETACVNIWCTDPYKCNPESGRCEDPNEEYEYDYE
modifications: glycan at Asn23 removed with PNGase F; sulfation of at least one of Tyr117, Tyr119 and Tyr121
In assay [3], B6 yielded an IC50 (nM), C1s enzyme assay of 2.86 nM.

B7: BD001 isolated from tissue (protein)
chain: AKKKLPKCQKQEDCGSWDLKCNNVTKKCECRNQVCGRGCPKERYQRDKYGCRKCLCKGCDGFKCRLGCTYGFKTDKKGCEAFCTCNTKETACVNIWCTDPYKCNPESGRCEDPNEEYEYDYE
modifications: glycosylation at Asn23 (fucosylated complex-type core); sulfation of at least one of Tyr117, Tyr119 and Tyr121
Turning to B7, the IC50 (nM), C1s enzyme assay in assay [3] is 4 nM and 4.7 nM.

B8: BD001 protein isolated from Pichia methanolica (protein)
chain: AKKKLPKCQKQEDCGSWDLKCNNVTKKCECRNQVCGRGCPKERYQRDKYGCRKCLCKGCDGFKCRLGCTYGFKTDKKGCEAFCTCNTKETACVNIWCTDPYKCNPESGRCEDPNEEYEYDYE
modifications: lacks tyrosine sulfation at the C-terminus and N-glycosylation
With B8, in assay [3], the IC50, C1s enzyme assay (decrease in Vmax of Pefa-C1E cleavage) worked out at 44 nM; the fold decrease in activity in bioassays compared with the baculovirus-expressed material is 10 fold; the fold less active than the baculovirus material, C1s enzyme assay amounted to 8 fold.
